Results as given in US5637463.

What was measured:
Assay in all cases: yeast two-hybrid with co-expressed Lck, LacZ reporter
[1] = biological target: LexA-NLS-FcεRIγ CT fusion protein, co-expressed with Lck (tyrosine-phosphorylated) (E. coli; human) (UniProt P0A7C2)
[2] = biological target: LexA-FcεRIγCT mutant with Tyr64 changed to phenylalanine, co-expressed with Lck (E. coli; human) (UniProt P0A7C2)
[3] = biological target: LexA-FcεRIγCT double mutant with Tyr64 and Tyr75 changed to phenylalanine, co-expressed with Lck (E. coli; human) (UniProt P0A7C2)
[4] = biological target: LexA-βCT fusion protein (C-terminus of the rat β subunit of FcεRI), co-expressed with Lck (E. coli; rat)
[5] = biological target: LexA-FcεRIγCT mutant with Tyr75 changed to phenylalanine, co-expressed with Lck (E. coli; human) (UniProt P0A7C2)

Substance | Galactosidase units (Galactosidase units) [1] | Galactosidase units (Galactosidase units) [2] | Galactosidase units (Galactosidase units) [3] | Galactosidase units (Galactosidase units) [4] | Galactosidase units (Galactosidase units) [5]
Vmw65-Lyn SH2 fusion protein (human Lyn amino acids 124-229) (from UniProt P06492) | 0 | 0 | 0 | 858 | 0
Vmw65-Syk N+C SH2 fusion protein (human Syk amino acids 11-262) (from UniProt P06492) | 559 | 0 | 0 | 1070 | 0
Vmw65-SykC SH2 fusion protein (human Syk amino acids 173-262) (from UniProt P06492) | 0 | 0 | 0 | 593 | 0
Vmw65-SykN SH2 fusion protein (human Syk amino acids 11-111) (from UniProt P06492) | 0 | 0 | 0 | 0 | 0
